For assay [1], the target named is HRV14-NimII-XXX23AA library (Human rhinovirus 14; influenza type A virus) (UniProt P03303). The assay is described as follows: cell-based or functional assay.
The target of assay [2] is HRV14-NimII-XXX17AA library (Human rhinovirus 14; influenza type A virus) (UniProt P03303). Description: cell-based or functional assay.

Fifty-percent neutralization (PRNT) (reciprocal dilution of 1 mg/ml stock) data for one substance are collected here from patent US20100239605A1.

Take “anti-M2e Mab 14C2 (Abcam, Inc; Cat# ab5416) (antibody)”: the Fifty-percent neutralization (PRNT) (reciprocal dilution of 1 mg/ml stock) in assay [1] and in assay [2] was 2e+06 throughout.
